Positions count from the first letter of the chain named.
B1: L3.PY/L1.AH/H3.TAQ (antibody, V domains shown)
VH: EVQLLESGGGLVQPGGSLRLSCAASGFTFGSYAMTWVRQAPGKGLEWVSAISGSGGNTFYADSVKGRFTISRDNSKNTLYLQMNSLRAEDTAVYYCTRVSPIAAQMDYWGQGTLVTVSS
VL: EIVLTQSPGTLSLSPGERATLSCRASQSVSAHYLAWYQQKPGQAPRLLIYGASSRATGIPDRFSGSGSGTDFTLTISRLEPEDFAVYYCQHYPYPPSFTFGQGTKVEIK
notes: IgG
B2: L3.PY/L1.FF/H2.DY (antibody, V domains shown)
VH: B1 VH with S52D, G53Y, T97A, A104S, Q105G
VL: B1 VL with A31S, H32F, Y33F
notes: IgG
B3: L3.PY/L1.FF/H2.HA (antibody, V domains shown)
VH: B1 VH with G53H, S54A, T97A, A104S, Q105G
VL: B1 VL with A31S, H32F, Y33F
notes: IgG
B4: L3.PY/L1.FF/H2.LT (antibody, V domains shown)
VH: B1 VH with G53L, S54T, T97A, A104S, Q105G
VL: B1 VL with A31S, H32F, Y33F
notes: IgG
B5: L3.PY/L1.FF/H2.QL (antibody, V domains shown)
VH: B1 VH with S63Q, V64L, T97A, A104S, Q105G
VL: B1 VL with A31S, H32F, Y33F
notes: IgG
B6: L3.PY/L1.FF/H2.QR (antibody, V domains shown)
VH: B1 VH with S63Q, V64R, T97A, A104S, Q105G
VL: B1 VL with A31S, H32F, Y33F
notes: IgG
B7: L3.PY/L1.FF/H2.YQ (antibody, V domains shown)
VH: B1 VH with G53Y, S54Q, T97A, A104S, Q105G
VL: B1 VL with A31S, H32F, Y33F
notes: IgG
B8: L3.PY/L1.FF/H3.AE (antibody, V domains shown)
VH: B1 VH with T97A, Q105E
VL: B1 VL with A31S, H32F, Y33F
notes: IgG
B9: L3.PY/L1.FF/H3.AQ (antibody, V domains shown)
VH: B1 VH with T97A
VL: B1 VL with A31S, H32F, Y33F
notes: IgG
B10: L3.PY/L1.FF/H3.TAQ (antibody, V domains shown)
VH: B1 VH
VL: B1 VL with A31S, H32F, Y33F
notes: IgG
B11: L3.PY/L1.FF/H3.YA (antibody, V domains shown)
VH: B1 VH with T97A, A103Y, Q105G
VL: B1 VL with A31S, H32F, Y33F
notes: IgG
B12: L3.PY/L1.PH/H2.HA (antibody, V domains shown)
VH: B1 VH with G53H, S54A, T97A, A104S, Q105G
VL: B1 VL with A31P
notes: IgG
B13: L3.PY/L1.PH/H2.QR (antibody, V domains shown)
VH: B1 VH with S63Q, V64R, T97A, A104S, Q105G
VL: B1 VL with A31P
notes: IgG
B14: L3.PY/L1.PH/H3.AE (antibody, V domains shown)
VH: B1 VH with T97A, Q105E
VL: B1 VL with A31P
notes: IgG
B15: L3.PY/L1.PH/H3.AQ (antibody, V domains shown)
VH: B1 VH with T97A
VL: B1 VL with A31P
notes: IgG
B16: L3.PY/L1.PH/H3.TAQ (antibody, V domains shown)
VH: B1 VH
VL: B1 VL with A31P
notes: IgG
B17: L3.PY/L3.KF/H2.DY (antibody, V domains shown)
VH: B1 VH with S52D, G53Y, T97A, A104S, Q105G
VL: B1 VL with A31S, H32S, Q90K, H91F
notes: IgG
B18: L3.PY/L3.KF/H2.LT (antibody, V domains shown)
VH: B1 VH with G53L, S54T, T97A, A104S, Q105G
VL: B1 VL with A31S, H32S, Q90K, H91F
notes: IgG
B19: L3.PY/L3.KF/H2.QL (antibody, V domains shown)
VH: B1 VH with S63Q, V64L, T97A, A104S, Q105G
VL: B1 VL with A31S, H32S, Q90K, H91F
notes: IgG
B20: L3.PY/L3.KF/H2.YQ (antibody, V domains shown)
VH: B1 VH with G53Y, S54Q, T97A, A104S, Q105G
VL: B1 VL with A31S, H32S, Q90K, H91F
notes: IgG
B21: L3.PY/L3.KF/H3.AE (antibody, V domains shown)
VH: B1 VH with T97A, Q105E
VL: B1 VL with A31S, H32S, Q90K, H91F
notes: IgG
B22: L3.PY/L3.KF/H3.AQ (antibody, V domains shown)
VH: B1 VH with T97A
VL: B1 VL with A31S, H32S, Q90K, H91F
notes: IgG
B23: L3.PY/L3.KF/H3.TAQ (antibody, V domains shown)
VH: B1 VH
VL: B1 VL with A31S, H32S, Q90K, H91F
notes: IgG
B24: L3.PY/L3.KF/H3.YA (antibody, V domains shown)
VH: B1 VH with T97A, A103Y, Q105G
VL: B1 VL with A31S, H32S, Q90K, H91F
notes: IgG
B25: L3.PY/L3.KY/H2.DY (antibody, V domains shown)
VH: B1 VH with S52D, G53Y, T97A, A104S, Q105G
VL: B1 VL with A31S, H32S, Q90K, H91Y
notes: IgG
B26: L3.PY/L3.KY/H2.HA (antibody, V domains shown)
VH: B1 VH with G53H, S54A, T97A, A104S, Q105G
VL: B1 VL with A31S, H32S, Q90K, H91Y
notes: IgG
B27: L3.PY/L3.KY/H2.LT (antibody, V domains shown)
VH: B1 VH with G53L, S54T, T97A, A104S, Q105G
VL: B1 VL with A31S, H32S, Q90K, H91Y
notes: IgG
B28: L3.PY/L3.KY/H2.QL (antibody, V domains shown)
VH: B1 VH with S63Q, V64L, T97A, A104S, Q105G
VL: B1 VL with A31S, H32S, Q90K, H91Y
notes: IgG
B29: L3.PY/L3.KY/H2.QR (antibody, V domains shown)
VH: B1 VH with S63Q, V64R, T97A, A104S, Q105G
VL: B1 VL with A31S, H32S, Q90K, H91Y
notes: IgG
B30: L3.PY/L3.KY/H2.YQ (antibody, V domains shown)
VH: B1 VH with G53Y, S54Q, T97A, A104S, Q105G
VL: B1 VL with A31S, H32S, Q90K, H91Y
notes: IgG
B31: L3.PY/L3.KY/H3.TAQ (antibody, V domains shown)
VH: B1 VH
VL: B1 VL with A31S, H32S, Q90K, H91Y
notes: IgG

biological target: T1, Human BCMA (human, UniProt Q02223 1-54, limits assumed); assay: SPR, IgG immobilised, 37 C
T1 construct: Soluble analyte in SPR; construct not described; also called huBCMA; B-cell maturation antigen
T1 sequence (looked up): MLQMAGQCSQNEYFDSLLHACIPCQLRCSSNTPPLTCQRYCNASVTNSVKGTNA
Protocol: All experiments were performed on a Bio-Rad Proteon XPR36 surface Plasmon resonance biosensor (Bio-Rad, Hercules, Calif.). […] The analysis temperature for the immobilization was 25° C. and the running buffer was HBS-T+(10 mM HEPES, 150 mM NaCl, 0.05% Tween-20, pH 7.4). Channels were activated in the analyte (horizontal) direction by injecting a mixture of 1 mM ECD and 0.25 mM NHS for 3 minutes at a flow rate of 30 μL/min. IgGs were immobilized on the activated spots by injecting them in the ligand (vertical) direction at 20 μg/mL in 10 mM Acetate pH 4.5 buffer for 1.5 minutes at […]. The activated surfaces were blocked by injecting 1M ethanolamine, pH 8.5 in the analyte direction for 3 minutes at 30 μL/min.
The analysis temperature for the BCMA binding analysis was 37° C. or 25° C. in a running buffer of HBS-T+, supplemented with 1 mg/mL BSA. A kinetic titration method was employed for the interaction analysis as described in Abdiche, et al. Human BCMA (huBCMA) or cynomolgus monkey BCMA (cyBCMA) analyte was injected in the analyte direction using a series of injections from low to high concentration. The concentrations used were 0.08 nM, 0.4 nM, 2 nM, 10 nM and 50 nM (a 5-membered series, with a 5-fold dilution factor and top concentration of 50 nM). The association time for a given analyte dilution was two minutes. Immediately after the 50 nM BCMA injection, dissociation was monitored for 2 hours.
The sensorgrams were double-referenced and fit to a 1:1 Langmuir with mass transport kinetic titration model in BIAevaluation Software version 4.1.1 (GE Lifesciences, Piscataway, N.J.).

Binder	Kd	T ½	koff	kon
B1	0.37 nM	9.68 min	0.00119 s⁻¹	3.27e+06 M⁻¹ s⁻¹
B2	0.65 nM	4.27 min	0.00271 s⁻¹	4.14e+06 M⁻¹ s⁻¹
B3	0.63 nM	5.29 min	0.00219 s⁻¹	3.49e+06 M⁻¹ s⁻¹
B4	0.51 nM	6.92 min	0.00167 s⁻¹	3.3e+06 M⁻¹ s⁻¹
B5	0.4 nM	8.28 min	0.0014 s⁻¹	3.48e+06 M⁻¹ s⁻¹
B6	0.51 nM	6.54 min	0.00177 s⁻¹	3.47e+06 M⁻¹ s⁻¹
B7	0.46 nM	7.61 min	0.00152 s⁻¹	3.32e+06 M⁻¹ s⁻¹
B8	0.69 nM	4.39 min	0.00263 s⁻¹	3.82e+06 M⁻¹ s⁻¹
B9	0.46 nM	7.51 min	0.00154 s⁻¹	3.32e+06 M⁻¹ s⁻¹
B10	0.54 nM	6.12 min	0.00189 s⁻¹	3.52e+06 M⁻¹ s⁻¹
B11	0.51 nM	6.41 min	0.0018 s⁻¹	3.5e+06 M⁻¹ s⁻¹
B12	0.49 nM	9.99 min	0.00116 s⁻¹	2.37e+06 M⁻¹ s⁻¹
B13	0.64 nM	4.89 min	0.00236 s⁻¹	3.69e+06 M⁻¹ s⁻¹
B14	0.36 nM	8.61 min	0.00134 s⁻¹	3.68e+06 M⁻¹ s⁻¹
B15	0.52 nM	7.27 min	0.00159 s⁻¹	3.08e+06 M⁻¹ s⁻¹
B16	0.59 nM	5.43 min	0.00213 s⁻¹	3.58e+06 M⁻¹ s⁻¹

Binder	Kd	T ½	koff	kon
B17	0.67 nM	6.35 min	0.00182 s⁻¹	2.74e+06 M⁻¹ s⁻¹
B18	0.69 nM	6.05 min	0.00191 s⁻¹	2.75e+06 M⁻¹ s⁻¹
B19	0.6 nM	9.26 min	0.00125 s⁻¹	2.07e+06 M⁻¹ s⁻¹
B20	1.14 nM	5.18 min	0.00223 s⁻¹	1.96e+06 M⁻¹ s⁻¹
B21	0.51 nM	7.44 min	0.00155 s⁻¹	3.07e+06 M⁻¹ s⁻¹
B22	0.65 nM	5.09 min	0.00227 s⁻¹	3.48e+06 M⁻¹ s⁻¹
B23	0.58 nM	7.12 min	0.00162 s⁻¹	2.82e+06 M⁻¹ s⁻¹
B24	0.47 nM	7.85 min	0.00147 s⁻¹	3.12e+06 M⁻¹ s⁻¹
B25	0.2 nM	18 min	0.000642 s⁻¹	3.19e+06 M⁻¹ s⁻¹
B26	0.49 nM	7.1 min	0.00163 s⁻¹	3.29e+06 M⁻¹ s⁻¹
B27	0.31 nM	12.8 min	0.000906 s⁻¹	2.92e+06 M⁻¹ s⁻¹
B28	0.57 nM	5.56 min	0.00208 s⁻¹	3.65e+06 M⁻¹ s⁻¹
B29	0.34 nM	11.7 min	0.00099 s⁻¹	2.95e+06 M⁻¹ s⁻¹
B30	0.77 nM	7.02 min	0.00165 s⁻¹	2.14e+06 M⁻¹ s⁻¹
B31	0.23 nM	17.8 min	0.000649 s⁻¹	2.79e+06 M⁻¹ s⁻¹
